Target: T1, CD16a (UniProt P08637 17-208, limits assumed)
T1 construct: also called Fc receptor CD16
Test: surface plasmon resonance traces (FIG. 10D)

T1 sequence (P08637 17-208 limits assumed): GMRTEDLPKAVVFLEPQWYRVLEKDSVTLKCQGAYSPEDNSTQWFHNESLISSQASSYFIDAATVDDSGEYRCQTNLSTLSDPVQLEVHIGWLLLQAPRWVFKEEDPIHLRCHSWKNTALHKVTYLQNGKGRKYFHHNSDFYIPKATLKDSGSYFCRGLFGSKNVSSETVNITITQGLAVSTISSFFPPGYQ

B1: Anti-CD16 nanobody (VHH)
VHH: EVQLTESGGEDVQAGGSLRLSCSASGLTFSSYNMGWFRRAPGKEREFVASITWSGRDTFYADSVKGRFTISRDNAKNTVYLQMSSLKPEDTATYYCAANPWPVAAPRSGTYWGEGTQVTV
notes: also called αCD16; anti-CD16 single domain antibody
  binding result: binds

Reference: patent publication US20210061922A1 (CITY OF HOPE, published 2021)
